Assay results as given in publication PMC9708728.

Molecular target: SARS-CoV-2 RBD (R319-F541) with a C-terminal His tag (SARS-CoV-2) (UniProt P0DTC2)
Experiment: SEC + other: non-reducing SDS-PAGE

Substance: SARS-CoV-2 RBD (R319-F541) with a C-terminal His tag (from UniProt P0DTC2 319-541) (domain or fragment)
- percent dimer: 30%
- stoichiometry N: 2
